Measured values from paper PMC2649420 (The Journal of biological chemistry, 2008).

Target: Sbi-III-IV (amino acids 150-266), domains III and IV of Sbi (S. aureus strain Mu50, UniProt Q99RL2 150-266)
Assay: SPR

B1: C3a anaphylatoxin (domain or fragment)
chain: not shown
Kd: 19.8 µM
